# Source: US20250076311A1 (Chugai, published 2025)
# Positions count from the first letter of the chain named. Names and notes keep the numbering of the source.
# T1: human FcγRIIaH extracellular domain, His-tagged (human, UniProt P12318 34-217)
# T1 construct: also called human FcgRIIaH; FcγRIIa type H
# T1 sequence: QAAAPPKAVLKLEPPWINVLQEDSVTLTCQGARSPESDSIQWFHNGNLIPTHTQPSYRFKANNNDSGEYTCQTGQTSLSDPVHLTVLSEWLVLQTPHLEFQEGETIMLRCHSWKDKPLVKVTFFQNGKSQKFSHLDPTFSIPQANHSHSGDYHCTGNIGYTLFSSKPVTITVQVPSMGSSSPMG
# T2: cynomolgus monkey FcγRIIIaS extracellular domain with C-terminal His-tag (cynomolgus monkey, UniProt Q8SPW2 21-206 at identity 1.00))
# T2 construct: also called cyno FcgRIIIaS; cynoFcγRIIIaS
# T2 chain: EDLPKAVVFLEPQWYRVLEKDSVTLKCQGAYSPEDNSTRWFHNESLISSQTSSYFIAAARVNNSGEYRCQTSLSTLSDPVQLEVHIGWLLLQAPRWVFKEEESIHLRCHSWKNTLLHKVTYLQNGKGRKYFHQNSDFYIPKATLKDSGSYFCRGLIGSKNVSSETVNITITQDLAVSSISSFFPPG
# T3: human FcγRIIaR extracellular domain with C-terminal His-tag (human, UniProt P12318 34-217)
# T3 construct: also called human FcgRIIaR; FcγRIIa type R; not shown: His-tag added to the C-terminus
# T3 chain: T1 sequence with H134R
# T4: cynomolgus monkey FcγRIIa3 extracellular domain with C-terminal His-tag (cynomolgus monkey)
# T4 construct: also called cyno FcgRIIa3; cynoFcγRIIa3; not shown: His-tag added to C-terminus
# T4 chain: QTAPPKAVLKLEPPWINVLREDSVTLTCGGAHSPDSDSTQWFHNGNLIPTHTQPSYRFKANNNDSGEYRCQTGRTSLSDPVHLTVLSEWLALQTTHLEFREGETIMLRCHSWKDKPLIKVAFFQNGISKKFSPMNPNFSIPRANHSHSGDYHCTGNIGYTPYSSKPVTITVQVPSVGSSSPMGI
# T5: human FcγRIIb extracellular domain with C-terminal His-tag (human, UniProt P31994 43-217)
# T5 construct: also called human FcgRIIb; not shown: His-tag added to C-terminus
# T5 sequence: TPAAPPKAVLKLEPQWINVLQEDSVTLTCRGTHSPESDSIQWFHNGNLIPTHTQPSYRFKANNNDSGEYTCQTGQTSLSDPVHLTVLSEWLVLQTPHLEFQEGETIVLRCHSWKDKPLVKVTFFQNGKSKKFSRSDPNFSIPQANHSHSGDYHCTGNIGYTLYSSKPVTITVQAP
# T6: cynomolgus monkey FcγRIIa1 extracellular domain, His-tagged (cynomolgus monkey)
# T6 construct: also called cyno FcgRIIa1
# T6 chain: T4 chain with T95P, A121T, S128A, P133H, N135D
# T7: cynomolgus monkey FcγRIIIaS extracellular domain, His-tagged (cynomolgus monkey, UniProt Q8SPW2 21-206 at identity 1.00))
# T7 construct: also called cyno FcgRIIIaS
# T7 chain: T2 chain
# T8: cynomolgus monkey FcγRIIa2 extracellular domain, His-tagged (cynomolgus monkey)
# T8 construct: also called cyno FcgRIIa2
# T8 chain: T4 chain with I127K, K130N, P133H, R142Q
# T9: cynomolgus monkey FcγRIIa3 extracellular domain, His-tagged (cynomolgus monkey)
# T9 construct: also called cyno FcgRIIa3
# T9 chain: T4 chain
# T10: cynomolgus monkey FcγRIIb extracellular domain, His-tagged (cynomolgus monkey)
# T10 construct: also called cyno FcgRIIb
# T10 chain: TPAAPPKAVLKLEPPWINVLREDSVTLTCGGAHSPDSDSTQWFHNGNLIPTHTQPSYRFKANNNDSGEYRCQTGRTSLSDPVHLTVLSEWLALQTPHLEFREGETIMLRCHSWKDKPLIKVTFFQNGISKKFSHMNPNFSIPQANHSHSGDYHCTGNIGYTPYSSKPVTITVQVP
# B1: GpH7-B3 G237Y / GpL16-k0 (antibody, human IgG1, kappa)
# heavy: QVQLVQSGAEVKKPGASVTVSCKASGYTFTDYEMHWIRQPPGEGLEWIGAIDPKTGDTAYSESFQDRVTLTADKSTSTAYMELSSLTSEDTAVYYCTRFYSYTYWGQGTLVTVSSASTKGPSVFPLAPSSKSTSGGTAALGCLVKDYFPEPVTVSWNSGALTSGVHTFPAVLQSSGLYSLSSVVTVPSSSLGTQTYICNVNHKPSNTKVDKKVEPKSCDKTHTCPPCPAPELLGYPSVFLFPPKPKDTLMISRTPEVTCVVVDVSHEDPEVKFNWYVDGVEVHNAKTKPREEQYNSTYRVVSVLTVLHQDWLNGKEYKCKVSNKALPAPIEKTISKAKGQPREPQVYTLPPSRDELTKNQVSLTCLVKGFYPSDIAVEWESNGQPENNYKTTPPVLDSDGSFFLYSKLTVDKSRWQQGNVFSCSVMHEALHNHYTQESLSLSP
# light: DIVMTQSPLSLPVTPGEPASISCQASESLVHSNRNTYLHWYLQKPGQSPQLLIYKVSNRFSGVPDRFSGSGSGTDFTLKISRVEAEDVGVYYCSQNTHVPPTFGQGTKVEIERTVAAPSVFIFPPSDEQLKSGTASVVCLLNNFYPREAKVQWKVDNALQSGNSQESVTEQDSKDSTYSLSSTLTLSKADYEKHKVYACEVTHQGLSSPVTKSFNRGEC
# notes: also called B3 variant G237Y
# B2: GpH7-B3 P238M / GpL16-k0 (antibody, human IgG1, kappa)
# heavy: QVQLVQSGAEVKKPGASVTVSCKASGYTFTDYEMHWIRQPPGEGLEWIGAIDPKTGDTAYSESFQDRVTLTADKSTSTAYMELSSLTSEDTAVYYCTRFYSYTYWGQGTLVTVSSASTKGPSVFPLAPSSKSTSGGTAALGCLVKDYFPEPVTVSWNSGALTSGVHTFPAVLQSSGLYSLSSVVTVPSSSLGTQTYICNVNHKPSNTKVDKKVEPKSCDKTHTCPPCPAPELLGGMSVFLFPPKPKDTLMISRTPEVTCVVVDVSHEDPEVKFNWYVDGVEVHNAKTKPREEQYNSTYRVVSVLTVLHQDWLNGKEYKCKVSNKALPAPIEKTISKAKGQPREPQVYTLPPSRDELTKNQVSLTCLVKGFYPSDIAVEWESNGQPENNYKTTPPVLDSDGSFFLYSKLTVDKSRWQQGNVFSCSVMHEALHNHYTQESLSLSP
# light: B1 light
# notes: also called B3 variant P238M
# B3: GpH7-B3 N325I / GpL16-k0 (antibody, human IgG1, kappa)
# heavy: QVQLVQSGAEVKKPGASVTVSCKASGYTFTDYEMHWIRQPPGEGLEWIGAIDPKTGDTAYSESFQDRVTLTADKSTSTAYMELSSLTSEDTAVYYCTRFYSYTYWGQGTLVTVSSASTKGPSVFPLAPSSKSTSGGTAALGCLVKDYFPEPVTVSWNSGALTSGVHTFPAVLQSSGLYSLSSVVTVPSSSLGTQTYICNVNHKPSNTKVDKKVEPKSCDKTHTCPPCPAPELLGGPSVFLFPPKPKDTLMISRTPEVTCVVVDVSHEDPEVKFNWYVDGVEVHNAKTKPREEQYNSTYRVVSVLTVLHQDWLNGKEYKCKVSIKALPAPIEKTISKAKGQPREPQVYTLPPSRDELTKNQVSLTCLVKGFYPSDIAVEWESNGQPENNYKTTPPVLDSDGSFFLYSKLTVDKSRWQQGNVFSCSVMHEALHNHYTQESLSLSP
# light: B1 light
# notes: also called B3 variant N325I
# B4: M103205H795-MY001/M103202L889-SK1 (antibody, human IgG1, kappa, name in EU numbering)
# heavy: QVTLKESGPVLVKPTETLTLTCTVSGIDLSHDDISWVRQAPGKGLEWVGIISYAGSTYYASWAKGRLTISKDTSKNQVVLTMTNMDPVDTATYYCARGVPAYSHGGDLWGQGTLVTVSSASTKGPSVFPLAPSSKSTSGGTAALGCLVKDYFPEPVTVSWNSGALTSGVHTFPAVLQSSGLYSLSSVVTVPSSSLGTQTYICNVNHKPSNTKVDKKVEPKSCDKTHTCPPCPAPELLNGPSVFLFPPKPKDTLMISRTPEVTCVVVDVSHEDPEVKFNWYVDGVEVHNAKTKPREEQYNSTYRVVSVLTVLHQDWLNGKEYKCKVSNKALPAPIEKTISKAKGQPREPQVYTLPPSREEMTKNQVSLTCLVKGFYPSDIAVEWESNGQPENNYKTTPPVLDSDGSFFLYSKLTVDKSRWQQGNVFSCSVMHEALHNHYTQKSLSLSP
# light: DIVMTQSPATLSLSPGERATLSCTSSQSVYHANWLSWFQQKPGQPPKLLIYWASTLAYGVPSRFSGSGSGTDFTLTISSLQPEDAATYYCAGGYGGGRYAFGQGTKVEIKRTVAAPSVFIFPPSDEQLKSGTASVVCLLNNFYPREAKVQWKVDNALQSGNSQESVTEQDSKDSTYSLSSTLTLSKADYEKHKVYACEVTHQGLSSPVTKSFNRGEC
# notes: Fc variant of MS1032LO06-SG1; positions in EU numbering
# B5: MS1032LO19-SG1 (antibody, human IgG1, kappa)
# heavy: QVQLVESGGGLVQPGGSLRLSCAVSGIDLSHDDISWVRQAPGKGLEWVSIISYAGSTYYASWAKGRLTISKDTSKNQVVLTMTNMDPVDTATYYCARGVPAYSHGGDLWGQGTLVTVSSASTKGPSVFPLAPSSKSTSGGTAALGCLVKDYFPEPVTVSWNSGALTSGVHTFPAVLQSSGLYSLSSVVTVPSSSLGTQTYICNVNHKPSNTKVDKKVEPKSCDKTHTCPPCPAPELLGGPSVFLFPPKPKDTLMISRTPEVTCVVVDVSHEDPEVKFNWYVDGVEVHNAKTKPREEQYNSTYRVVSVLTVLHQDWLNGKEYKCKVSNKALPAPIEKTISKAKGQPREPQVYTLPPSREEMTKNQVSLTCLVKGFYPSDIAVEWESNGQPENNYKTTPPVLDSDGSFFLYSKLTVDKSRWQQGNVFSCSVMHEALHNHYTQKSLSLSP
# light: B4 light with S25T, A32E
# notes: tied to rows r13/r31 by row order only; also called MS103240H795-SG1; copies: 2 + 2
# B6: MS1032LO19-SG1081 (antibody, name in EU numbering)
# heavy: QVQLVESGGGLVQPGGSLRLSCAVSGIDLSHDDISWVRQAPGKGLEWVSIISYAGSTYYASWAKGRLTISKDTSKNQVVLTMTNMDPVDTATYYCARGVPAYSHGGDLWGQGTLVTVSSASTKGPSVFPLAPSSKSTSGGTAALGCLVKDYFPEPVTVSWNSGALTSGVHTFPAVLQSSGLYSLSSVVTVPSSSLGTQTYICNVNHKPSNTKVDKKVEPKSCDKTHTCPPCPAPELWNGPSVFLFPPKPKDTLMISRTPEVTCVVVDVSDEDPEVKFNWYVDGVEVHNAKTKPREELYNSTYRVVSVLTVLHRDWLNGKEYKCKVSNTALPKPIEKTISKAKGQRREPQVYTLPPSREEMTKNQVSLTCLVKGFYPSDIAVEWESNGQPENNYKTTPPVLDSDGSFFLYSKLTVDKSRWQQGNVFSCSVMHEALHAHYTRKELSLSP
# light: B4 light with S25T, A32E
# notes: tied to rows r19/r37 by row order only; also called MS103240H795-SG1081
# B7: M103205H795-MY200/M103202L889-SK1 (antibody)
# heavy: QVTLKESGPVLVKPTETLTLTCTVSGIDLSHDDISWVRQAPGKGLEWVGIISYAGSTYYASWAKGRLTISKDTSKNQVVLTMTNMDPVDTATYYCARGVPAYSHGGDLWGQGTLVTVSSASTKGPSVFPLAPSSKSTSGGTAALGCLVKDYFPEPVTVSWNSGALTSGVHTFPAVLQSSGLYSLSSVVTVPSSSLGTQTYICNVNHKPSNTKVDKKVEPKSCDKTHTCPPCPAPELLNGPVVFLFPPKPKDTLMISRTPEVTCVVVDVSEEDPEVKFNWYVDGVEVHNAKTKPREEQYNSTYRVVSVLTVLHQDWLNGKEYKCKVSNKALPKPIEKTISKAKGQPREPQVYTLPPSREEMTKNQVSLTCLVKGFYPSDIAVEWESNGQPENNYKTTPPVLDSDGSFFLYSKLTVDKSRWQQGNVFSCSVMHEALHNHYTQKSLSLSP
# light: B4 light
# notes: Fc variant of MS1032LO06-SG1; EU numbering; printed S2369V is probably S239V
# B8: MS1032LO19-SG1077 (antibody, name in EU numbering)
# heavy: B6 heavy with M430L, Y438T
# light: B4 light with S25T, A32E
# notes: tied to rows r16/r34 by row order only; also called MS103240H795-SG1077
# B9: M103205H795-MY181/M103202L889-SK1 (antibody, human IgG1, kappa, name in EU numbering)
# heavy: B7 heavy with V241S, K332A, P398T
# light: B4 light
# notes: EU numbering
# B10: M103205H795-SG179 / M103202L889-SK1 (antibody, human IgG1, kappa, name in EU numbering)
# heavy: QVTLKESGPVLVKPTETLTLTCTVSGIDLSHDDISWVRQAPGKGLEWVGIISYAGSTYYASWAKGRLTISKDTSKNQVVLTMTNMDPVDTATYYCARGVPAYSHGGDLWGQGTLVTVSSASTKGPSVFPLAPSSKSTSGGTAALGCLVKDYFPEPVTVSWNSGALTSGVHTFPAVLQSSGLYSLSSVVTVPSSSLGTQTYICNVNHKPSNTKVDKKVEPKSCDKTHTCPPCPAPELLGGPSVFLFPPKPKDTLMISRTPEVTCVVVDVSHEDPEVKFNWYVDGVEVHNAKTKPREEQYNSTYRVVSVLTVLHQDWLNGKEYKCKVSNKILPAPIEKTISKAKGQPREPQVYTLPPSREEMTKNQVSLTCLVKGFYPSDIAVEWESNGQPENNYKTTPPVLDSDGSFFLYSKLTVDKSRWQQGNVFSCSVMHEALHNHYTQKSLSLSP
# light: B4 light
# notes: also called A327I
# Key:
# [1] = target: T11, human FcγRIIIaV extracellular domain, His-tagged (human, UniProt P08637 17-208); assay: SPR (Biacore), 25C, FcgR bound per antibody captured
# T11 construct: also called human FcgRIIIaV
# T11 sequence (P08637 17-208 F176V): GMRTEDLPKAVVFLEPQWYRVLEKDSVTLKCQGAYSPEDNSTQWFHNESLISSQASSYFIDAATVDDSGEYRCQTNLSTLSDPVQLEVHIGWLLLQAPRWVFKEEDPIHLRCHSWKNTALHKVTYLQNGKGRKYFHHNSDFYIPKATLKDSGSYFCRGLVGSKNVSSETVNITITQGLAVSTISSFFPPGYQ
# [2] = target: T1, human FcγRIIaH extracellular domain, …; assay: as above
# [3] = target: T12, cynomolgus monkey FcγRIIIaS extracellular domain with C-terminal His-tag (cynomolgus monkey, UniProt A3RFZ7 21-206 (rhesus entry)); assay: SPR (BIACORE); KD of SG1 / KD of variant
# T12 construct: also called cyno FcgRIIIaS; cynoFcγRIIIaS; not shown: His-tag added to the C-terminus
# Description: (§1) The kinetic analysis of interactions between these antibodies and FcγR was carried out using BIACORE® T200 or BIACORE® 4000 (GE Healthcare). HBS-EP+ (GE Healthcare) was used as the running buffer, and the measurement temperature was set to 25° C. […] After the measurement, the antibody captured on the chip was washed off by allowing reaction with 10 mM glycine-HCl, pH1.5 and 25 mM NaOH so that the chip was regenerated and used repeatedly. The sensorgrams obtained as measurement results were analyzed by the 1:1 Langmuir binding model using the BIACORE® Evaluation Software to calculate the binding rate constant ka (L/mol/s) and dissociation rate constant kd (1/s), and the dissociation constant KD (mol/L) was calculated from these values. […] Regarding such interactions, KD values were calculated using the following 1:1 binding model described in BIACORE® T100 Software Handbook BR1006-48 Edition AE.
# [4] = target: T12, cynomolgus monkey FcγRIIIaS …; assay: SPR (BIACORE), antibody captured, FcgR analyte
# Description: as §1
# [5] = target: T2, cynomolgus monkey FcγRIIIaS …; assay: SPR, KD(parent SG1)/KD(variant)
# [6] = target: T3, human FcγRIIaR extracellular domain …; assay: SPR (BIACORE), antibody captured, FcgR analyte
# Description: as §1
# [7] = target: T4, cynomolgus monkey FcγRIIa3 …; assay: SPR Biacore, antibody captured, FcgR analyte
# Description: as §1
# [8] = target: T5, human FcγRIIb extracellular domain with …; assay: SPR Biacore, antibody captured, FcgR analyte
# Description: as §1
# [9] = target: T13, cynomolgus monkey FcγRIIIaS extracellular domain with C-terminal His-tag (cynomolgus monkey, UniProt A3RFZ7 21-206 (rhesus entry)); assay: SPR Biacore, antibody captured, FcgR analyte
# T13 construct: also called cyno FcgRIIIaS; cynoFcγRIIIaS; not shown: His-tag added to C-terminus
# Description: as §1
# [10] = target: T6, cynomolgus monkey FcγRIIa1 …; assay: SPR (Biacore), 25C, FcgR bound per antibody captured
# Description: (§2) In the next step, cross-reactivity of these substitutions to cynoFcγRs was evaluated.
# (§3) The value of the amount of FcγR binding was obtained by dividing the amount of FcγR bound by the amount of each antibody captured.
# [11] = target: T7, cynomolgus monkey FcγRIIIaS …; assay: as above
# Description: as §2, §3
# [12] = target: T8, cynomolgus monkey FcγRIIa2 …; assay: as above
# Description: as §2, §3
# [13] = target: T9, cynomolgus monkey FcγRIIa3 …; assay: as above
# Description: as §2, §3
# [14] = target: T10, cynomolgus monkey FcγRIIb extracellular …; assay: as above
# Description: as §2, §3
binder,measurement,setting,value
B1,Binding to human FcgRs (parent B3 = 100),[1],0
same,Binding to human FcgRs (parent B3 = 100),[2],77
B2,Binding to human FcgRs (parent B3 = 100),[1],2
same,Binding to human FcgRs (parent B3 = 100),[2],86
B3,Binding to human FcgRs (parent B3 = 100),[1],1
same,Binding to human FcgRs (parent B3 = 100),[2],76
B4,KD fold (SG1 = 1),[3],0.05 fold
same,Kd,[4],32 µM
B5,KD fold (SG1 = 1),[5],1 fold
B6,KD fold (SG1 = 1),[5],0.09 fold
B7,Kd,[6],2.7 µM
same,Kd,[4],4.4 µM
B8,KD fold (SG1 = 1),[5],0.09 fold
B9,KD fold (SG1 = 1),[7],1.1 fold
same,Kd,[8],1.4 µM
same,KD fold (SG1 = 1),[9],0.09 fold
same,Kd,[9],4.1 µM
B10,Binding to cynoFcgRs (SG1 = 100),[10],19
same,Binding to cynoFcgRs (SG1 = 100),[11],48
same,Binding to cynoFcgRs (SG1 = 100),[12],17
same,Binding to cynoFcgRs (SG1 = 100),[13],28
same,Binding to cynoFcgRs (SG1 = 100),[14],19
